Experimental data reported in patent US20220026429A1, “COMPOSITIONS AND METHODS OF ALTERING A NUCLEIC ACID WITH RIBONUCLEASE” (The Research Foundation for the State University of New York, priority 2020, published 2022).

Assays:
[1] = biological target: T1, RNase H (Escherichia coli, UniProt P0A7Y4); assay: DNA nanoswitch RNase H inhibition assay (gel readout); format: biochemical; conditions: nanoswitch incubated with different concentrations of kanamycin, then RNase H (0.5 U) added; FIG. 4F; read-out: IC50 value, inhibition of the RNA cleavage activity of RNase H
T1 construct: purchased New England Biolabs (NEB)
T1 sequence (P0A7Y4 whole entry): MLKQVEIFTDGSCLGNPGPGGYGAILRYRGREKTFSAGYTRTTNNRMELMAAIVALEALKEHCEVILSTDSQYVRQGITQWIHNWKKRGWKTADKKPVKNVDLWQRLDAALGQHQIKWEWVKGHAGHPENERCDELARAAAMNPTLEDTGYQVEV
Procedure: (§1) Locked nanoswitches, such as DNA-nanoswitch-nucleic acid constructs were first mixed with RNase H buffer (1× final) and placed at 37° C. 1 μl of RNase H (different units/μl) was added to 10 μl of locked nanoswitches such as DNA-nanoswitch-nucleic acid constructs and incubated at 37° C. For sensitivity experiments, samples were incubated for 1 hour at 37° C. For time series experiments, RNase H enzyme was added at different time points (from 16 mins to 0 min). After incubation, samples were mixed with 1 μl GelRed (1×final) and 2 μl loading dye (15% Ficoll, 0.1% bromophenol blue), and run on 0.8% agarose gels. A similar protocol was used for the other enzymes.
(§2) Nanoswitches were run in 0.8% agarose gels, cast from molecular biology grade agarose (Fisher BioReagents) dissolved in 0.5×Tris-borate EDTA (TBE). Gels were typically run at 75 V (constant voltage) at room temperature. Samples were pre-stained by mixing 1× GelRed stain with the samples before loading. Gels were imaged with a Bio-Rad Gel Doc XR+gel imager and analyzed using ImageJ.
Next, the potential of assays of the present disclosure was tested for screening RNase H inhibitors. […] To further make a rapid readout, a start-to-finish assay was performed within 15 mins, by incubating the nanoswitches with RNase H for 5 mins followed by agarose gel electrophoresis for 10 mins (FIG. 4G). […]

[2] = test system: locked nanoswitches (RNA lock strand); assay: DNA nanoswitch RNase activity assay, panel of RNases; format: biochemical; conditions: agarose gel readout, FIG. 4E
Procedure: as §1, §2
As a step toward testing ribonuclease presence in biological samples, a known concentration of RNase H was spiked into fetal bovine serum (FBS) and cell lysates extracted from human (HeLa) and murine (C2C12) cell lines. RNase detection was preserved in 10% FBS and cell lysates with the unlocking of the DNA nanoswitch in both biofluids (FIGS. 4B-4C).

## NC[C@H]1O[C@H](O[C@H]2[C@H](O)[C@@H](O[C@H]3O[C@H](CO)[C@@H](O)[C@H](N)[C@H]3O)[C@H](N)C[C@@H]2N)[C@H](O)[C@@H](O)[C@@H]1O [kanamycin]
[1]
  IC50: 30.6 mM

B1: RNase T: ribonuclease enzyme purchased from New England Biolabs (protein, UniProt P30014 1-215, looked up)
Ribonuclease T: MSDNAQLTGLCDRFRGFYPVVIDVETAGFNAKTDALLEIAAITLKMDEQGWLMPDTTLHFHVEPFVGANLQPEALAFNGIDPNDPDRGAVSEYEALHEIFKVVRKGIKASGCNRAIMVAHNANFDHSFMMAAAERASLKRNPFHPFATFDTAALAGLALGQTVLSKACQTAGMDFDSTQAHSALYDTERTAVLFCEIVNRWKRLGGWPLSAAEEV
[2]
  response of the locked nanoswitches (unlooping) to RNases: no activity

B2: RNase A: endonucleases from Enzyme Class EC 3.1.27.5 (protein, UniProt P61823 27-150, looked up)
Ribonuclease pancreatic: KETAAAKFERQHMDSSTSAASSSNYCNQMMKSRNLTKDRCKPVNTFVHESLADVQAVCSQKNVACKNGQTNCYQSYSTMSITDCRETGSSKYPNCAYKTTQANKHIIVACEGNPYVPVHFDASV
[2]
  response of the locked nanoswitches (unlooping) to RNases: high levels of unlooping
